Five molecules from patent publication US20140087995A1 (published 2014) can be followed below.

Sequences and labels used below:
T1: human calcitonin receptor (human, UniProt P30988 25-474)
T1 sequence (looked up): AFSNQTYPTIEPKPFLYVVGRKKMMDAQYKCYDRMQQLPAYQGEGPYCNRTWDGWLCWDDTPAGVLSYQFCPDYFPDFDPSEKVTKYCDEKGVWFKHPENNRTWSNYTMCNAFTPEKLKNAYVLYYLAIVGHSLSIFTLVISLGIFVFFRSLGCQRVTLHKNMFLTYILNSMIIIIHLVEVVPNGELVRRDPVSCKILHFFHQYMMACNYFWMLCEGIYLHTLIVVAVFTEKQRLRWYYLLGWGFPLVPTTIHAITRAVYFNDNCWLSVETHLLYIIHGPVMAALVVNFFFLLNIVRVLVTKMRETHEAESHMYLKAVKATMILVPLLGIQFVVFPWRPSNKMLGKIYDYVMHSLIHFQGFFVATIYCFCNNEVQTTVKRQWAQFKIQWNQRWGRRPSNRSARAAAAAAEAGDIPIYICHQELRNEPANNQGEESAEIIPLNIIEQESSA

B1: N^ε1-[2-[2-[2-[[(4S)-4-carboxy-4-(19-carboxynonadecanoylamino)butanoyl]amino]ethoxy]ethoxy]acetyl]-[Ser14,Arg17,Pro21,Pro27,Pro31]-h-amylin (peptide)
peptide: K([AEEA-γGlu-C20 diacid])CNTATCATQRLASFLRHSSPNFGAIPSSTPVGSNTY-NH2
modifications: disulfide 2-7; N-terminus assumed
SMILES: CC[C@H](C)[C@H](NC(=O)[C@H](C)NC(=O)CNC(=O)[C@H](Cc1ccccc1)NC(=O)[C@H](CC(N)=O)NC(=O)[C@@H]1CCCN1C(=O)[C@H](CO)NC(=O)[C@H](CO)NC(=O)[C@H](Cc1c[nH]cn1)NC(=O)[C@H](CCCNC(=N)N)NC(=O)[C@H](CC(C)C)NC(=O)[C@H](Cc1ccccc1)NC(=O)[C@H](CO)NC(=O)[C@H](C)NC(=O)[C@H](CC(C)C)NC(=O)[C@H](CCCNC(=N)N)NC(=O)[C@H](CCC(N)=O)NC(=O)[C@@H](NC(=O)[C@H](C)NC(=O)[C@@H]1CSSC[C@H](NC(=O)[C@@H](N)CCCCNC(=O)COCCOCCNC(=O)CC[C@H](NC(=O)CCCCCCCCCCCCCCCCCCC(=O)O)C(=O)O)C(=O)N[C@@H](CC(N)=O)C(=O)N[C@@H]([C@@H](C)O)C(=O)N[C@@H](C)C(=O)N[C@@H]([C@@H](C)O)C(=O)N1)[C@@H](C)O)C(=O)N1CCC[C@H]1C(=O)N[C@@H](CO)C(=O)N[C@@H](CO)C(=O)N[C@H](C(=O)N1CCC[C@H]1C(=O)N[C@H](C(=O)NCC(=O)N[C@@H](CO)C(=O)N[C@@H](CC(N)=O)C(=O)N[C@H](C(=O)N[C@@H](Cc1ccc(O)cc1)C(N)=O)[C@@H](C)O)C(C)C)[C@@H](C)O
notes: analogue of human amylin; also called compound 73
B2: N^ε1-[(4S)-4-carboxy-4-(19-carboxynonadecanoylamino)butanoyl]-[Arg14,Arg17,Pro21,Pro27,Pro34]-h-amylin (peptide)
peptide: K([γGlu-C20 diacid])CNTATCATQRLARFLRHSSPNFGAIPSSTNVGPNTY-NH2
modifications: disulfide 2-7; N-terminus assumed
SMILES: CC[C@H](C)[C@H](NC(=O)[C@H](C)NC(=O)CNC(=O)[C@H](Cc1ccccc1)NC(=O)[C@H](CC(N)=O)NC(=O)[C@@H]1CCCN1C(=O)[C@H](CO)NC(=O)[C@H](CO)NC(=O)[C@H](Cc1c[nH]cn1)NC(=O)[C@H](CCCNC(=N)N)NC(=O)[C@H](CC(C)C)NC(=O)[C@H](Cc1ccccc1)NC(=O)[C@H](CCCNC(=N)N)NC(=O)[C@H](C)NC(=O)[C@H](CC(C)C)NC(=O)[C@H](CCCNC(=N)N)NC(=O)[C@H](CCC(N)=O)NC(=O)[C@@H](NC(=O)[C@H](C)NC(=O)[C@@H]1CSSC[C@H](NC(=O)[C@@H](N)CCCCNC(=O)CC[C@H](NC(=O)CCCCCCCCCCCCCCCCCCC(=O)O)C(=O)O)C(=O)N[C@@H](CC(N)=O)C(=O)N[C@@H]([C@@H](C)O)C(=O)N[C@@H](C)C(=O)N[C@@H]([C@@H](C)O)C(=O)N1)[C@@H](C)O)C(=O)N1CCC[C@H]1C(=O)N[C@@H](CO)C(=O)N[C@@H](CO)C(=O)N[C@H](C(=O)N[C@@H](CC(N)=O)C(=O)N[C@H](C(=O)NCC(=O)N1CCC[C@H]1C(=O)N[C@@H](CC(N)=O)C(=O)N[C@H](C(=O)N[C@@H](Cc1ccc(O)cc1)C(N)=O)[C@@H](C)O)C(C)C)[C@@H](C)O
notes: analogue of human amylin; also called compound 65
B3: N^ε1-[(4S)-4-carboxy-4-(19-carboxynonadecanoylamino)butanoyl]-[Arg17,Pro21,Pro27,Glu35]-h-amylin (peptide)
peptide: K([γGlu-C20 diacid])CNTATCATQRLANFLRHSSPNFGAIPSSTNVGSETY-NH2
modifications: disulfide 2-7; N-terminus assumed
SMILES: CC[C@H](C)[C@H](NC(=O)[C@H](C)NC(=O)CNC(=O)[C@H](Cc1ccccc1)NC(=O)[C@H](CC(N)=O)NC(=O)[C@@H]1CCCN1C(=O)[C@H](CO)NC(=O)[C@H](CO)NC(=O)[C@H](Cc1c[nH]cn1)NC(=O)[C@H](CCCNC(=N)N)NC(=O)[C@H](CC(C)C)NC(=O)[C@H](Cc1ccccc1)NC(=O)[C@H](CC(N)=O)NC(=O)[C@H](C)NC(=O)[C@H](CC(C)C)NC(=O)[C@H](CCCNC(=N)N)NC(=O)[C@H](CCC(N)=O)NC(=O)[C@@H](NC(=O)[C@H](C)NC(=O)[C@@H]1CSSC[C@H](NC(=O)[C@@H](N)CCCCNC(=O)CC[C@H](NC(=O)CCCCCCCCCCCCCCCCCCC(=O)O)C(=O)O)C(=O)N[C@@H](CC(N)=O)C(=O)N[C@@H]([C@@H](C)O)C(=O)N[C@@H](C)C(=O)N[C@@H]([C@@H](C)O)C(=O)N1)[C@@H](C)O)C(=O)N1CCC[C@H]1C(=O)N[C@@H](CO)C(=O)N[C@@H](CO)C(=O)N[C@H](C(=O)N[C@@H](CC(N)=O)C(=O)N[C@H](C(=O)NCC(=O)N[C@@H](CO)C(=O)N[C@@H](CCC(=O)O)C(=O)N[C@H](C(=O)N[C@@H](Cc1ccc(O)cc1)C(N)=O)[C@@H](C)O)C(C)C)[C@@H](C)O
notes: analogue of human amylin; also called compound 27
B4: N^ε1-[(4S)-4-carboxy-4-(19-carboxynonadecanoylamino)butanoyl]-[Arg14,Arg17,Pro21,Pro27,Pro31]-h-amylin (peptide)
peptide: K([γGlu-C20 diacid])CNTATCATQRLARFLRHSSPNFGAIPSSTPVGSNTY-NH2
modifications: disulfide 2-7; N-terminus assumed
SMILES: CC[C@H](C)[C@H](NC(=O)[C@H](C)NC(=O)CNC(=O)[C@H](Cc1ccccc1)NC(=O)[C@H](CC(N)=O)NC(=O)[C@@H]1CCCN1C(=O)[C@H](CO)NC(=O)[C@H](CO)NC(=O)[C@H](Cc1c[nH]cn1)NC(=O)[C@H](CCCNC(=N)N)NC(=O)[C@H](CC(C)C)NC(=O)[C@H](Cc1ccccc1)NC(=O)[C@H](CCCNC(=N)N)NC(=O)[C@H](C)NC(=O)[C@H](CC(C)C)NC(=O)[C@H](CCCNC(=N)N)NC(=O)[C@H](CCC(N)=O)NC(=O)[C@@H](NC(=O)[C@H](C)NC(=O)[C@@H]1CSSC[C@H](NC(=O)[C@@H](N)CCCCNC(=O)CC[C@H](NC(=O)CCCCCCCCCCCCCCCCCCC(=O)O)C(=O)O)C(=O)N[C@@H](CC(N)=O)C(=O)N[C@@H]([C@@H](C)O)C(=O)N[C@@H](C)C(=O)N[C@@H]([C@@H](C)O)C(=O)N1)[C@@H](C)O)C(=O)N1CCC[C@H]1C(=O)N[C@@H](CO)C(=O)N[C@@H](CO)C(=O)N[C@H](C(=O)N1CCC[C@H]1C(=O)N[C@H](C(=O)NCC(=O)N[C@@H](CO)C(=O)N[C@@H](CC(N)=O)C(=O)N[C@H](C(=O)N[C@@H](Cc1ccc(O)cc1)C(N)=O)[C@@H](C)O)C(C)C)[C@@H](C)O
notes: analogue of human amylin; also called compound 63
B5: N^ε1-[2-[2-[2-[[(4S)-4-carboxy-4-(19-carboxynonadecanoylamino)butanoyl]amino]ethoxy]ethoxy]acetyl]-[Thr14,Arg17,Pro21,Pro27,Pro31]-h-amylin (peptide)
peptide: K([AEEA-γGlu-C20 diacid])CNTATCATQRLATFLRHSSPNFGAIPSSTPVGSNTY-NH2
modifications: disulfide 2-7; N-terminus assumed
SMILES: CC[C@H](C)[C@H](NC(=O)[C@H](C)NC(=O)CNC(=O)[C@H](Cc1ccccc1)NC(=O)[C@H](CC(N)=O)NC(=O)[C@@H]1CCCN1C(=O)[C@H](CO)NC(=O)[C@H](CO)NC(=O)[C@H](Cc1c[nH]cn1)NC(=O)[C@H](CCCNC(=N)N)NC(=O)[C@H](CC(C)C)NC(=O)[C@H](Cc1ccccc1)NC(=O)[C@@H](NC(=O)[C@H](C)NC(=O)[C@H](CC(C)C)NC(=O)[C@H](CCCNC(=N)N)NC(=O)[C@H](CCC(N)=O)NC(=O)[C@@H](NC(=O)[C@H](C)NC(=O)[C@@H]1CSSC[C@H](NC(=O)[C@@H](N)CCCCNC(=O)COCCOCCNC(=O)CC[C@H](NC(=O)CCCCCCCCCCCCCCCCCCC(=O)O)C(=O)O)C(=O)N[C@@H](CC(N)=O)C(=O)N[C@@H]([C@@H](C)O)C(=O)N[C@@H](C)C(=O)N[C@@H]([C@@H](C)O)C(=O)N1)[C@@H](C)O)[C@@H](C)O)C(=O)N1CCC[C@H]1C(=O)N[C@@H](CO)C(=O)N[C@@H](CO)C(=O)N[C@H](C(=O)N1CCC[C@H]1C(=O)N[C@H](C(=O)NCC(=O)N[C@@H](CO)C(=O)N[C@@H](CC(N)=O)C(=O)N[C@H](C(=O)N[C@@H](Cc1ccc(O)cc1)C(N)=O)[C@@H](C)O)C(C)C)[C@@H](C)O
notes: analogue of human amylin; also called compound 75

Numbered stars: 1 amine (or outer) side, 2 acyl side, 3 side chain; on linkers, the order of the positions; unused ones are H or OH. Bridge positions count the residues as written; N and C are the ends. Side chains are listed from the residue outwards. Ends that are not written are not given here. * marks the point of attachment. C20 diacid = O=C(O)CCCCCCCCCCCCCCCCCCC(=O)*; γGlu = O=C(O)[C@H](CCC(=O)[*:2])N[*:1]; AEEA = NCCOCCOCC(=O)O

The experiment deals with T1, human calcitonin receptor. The experiment in a line: cell-based or functional assay.
With B1, the “hCTR funct. EC50” value is 0.961 nM. B2: the “hCTR funct. EC50” value was 9.33 nM. With B3, the “hCTR funct. EC50” value came out at 3 nM.

B4: the “hCTR funct. EC50” value was 5.13 nM. On to B5, for which the “hCTR funct. EC50” value is 9.07 nM.
